The source of these data is patent US20060121042A1 (AstraZeneca / MedImmune, published 2006).

Assay [1] deals with T1, Human EphA4-Fc fusion protein (human, UniProt P54764 20-547).
T1 construct: not shown: Fc portion of a human IgG1
The experiment in a line: BIAcore, IgG immobilized on the sensor chip, EphA4-Fc as analyte; comment on the sheet: off-rate below LOD. How it is done:
FIG. 15A-15B. […] Binding affinities were measured using the BIAcore assay. […] Variant kinetic measurements for human EphA4 and were obtained using BIAcore with immobilized variant antibodies and human EphA4-Fc and EphA4-His as analytes.

For the next assay, the target named is T2, r rat EphA5 (rat, UniProt P54757).
T2 construct: part of an Fc fusion; also called rEphA5; rratEphA5-Fc
The experiment in a line: Activity ELISA, receptor coated on the plate, purified IgG, anti-human kappa-HRP. The protocol: (§1) Secondary screening of IgG constructs of affinity optimized combinatorial variants with additional EphA receptors: With purified IgG constructs of the nine combinatorial variants, additional secondary screening assays were performed using the Activity ELISA (see above) and recombinant EphA receptor proteins. More precisely, Nunc Maxisorp plates were coated with the following rEphA proteins: rhuEphAl-Fc; 0.5 μg/well, rmuEphA2-Fc; 0.5 μg/well, rmuEphA3-Fc: 0.1 μg/well, rmuEphA4-Fc; 0.1 μg/well, rratEphA5-Fc; 0.5 μg/well, rmuEphA6-Fc; 0.5 μg/well, rmuEphA7-Fc; 0.1 μg/well, rEphA8; 0.2 μg/well (all R&D Systems), rhuEphA2-Fc; 0.5 μg/well, and rhuEphA4-His; 0.1 μg/well (both produced at MedImmune, Inc.). Plates were blocked with 3% BSA+0.1% Tween20 for 2 h. […] Incubation with a goat anti-human kappa horseradish peroxydase (HRP) conjugate then followed. HRP activity was detected with TMB substrate and the reaction quenched with 0.2 M H₂SO₄. Plates were read at 450 nm. Data was analyzed by normalizing Fab concentrations to the corresponding activity data (see FIGS. 12A-12J and 14).

The target of another assay is T3, r murine EphA4 (mouse, UniProt Q03137).
T3 construct: recombinant Fc fusion (R&D Systems); also called rmuEphA4-Fc; mEphA4
The experiment in a line: activity ELISA, IgG on coated antigen. On the technique in general: ELISA stands for enzyme-linked immunosorbent assay.

A further assay deals with T4, r murine EphA7 (mouse, UniProt Q61772).
T4 construct: recombinant Fc fusion (R&D Systems); also called rmuEphA7-Fc; mEphA7
T4 sequence (receptor-Fc fusion, looked up): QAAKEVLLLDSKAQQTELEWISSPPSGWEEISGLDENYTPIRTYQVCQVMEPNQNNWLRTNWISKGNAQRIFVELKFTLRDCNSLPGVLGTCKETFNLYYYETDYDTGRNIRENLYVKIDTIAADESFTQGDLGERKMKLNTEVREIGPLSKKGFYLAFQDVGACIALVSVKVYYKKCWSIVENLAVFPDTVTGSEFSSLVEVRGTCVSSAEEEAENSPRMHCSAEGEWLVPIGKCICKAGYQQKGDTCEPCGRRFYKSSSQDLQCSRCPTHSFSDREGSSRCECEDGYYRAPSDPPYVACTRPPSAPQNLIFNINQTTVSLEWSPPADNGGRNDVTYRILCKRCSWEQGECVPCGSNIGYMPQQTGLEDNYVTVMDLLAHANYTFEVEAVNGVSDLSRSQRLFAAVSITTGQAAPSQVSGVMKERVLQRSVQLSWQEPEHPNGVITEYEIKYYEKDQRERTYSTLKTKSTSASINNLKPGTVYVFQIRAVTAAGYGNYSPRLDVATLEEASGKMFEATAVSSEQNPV
The experiment in a line: activity ELISA, IgG on coated antigen.

The next assay has as its target T5, r murine EphA8 (mouse, UniProt O09127).
T5 construct: recombinant soluble protein coated on the plate; also called mEphA8; rEphA8
T5 sequence (receptor construct, looked up): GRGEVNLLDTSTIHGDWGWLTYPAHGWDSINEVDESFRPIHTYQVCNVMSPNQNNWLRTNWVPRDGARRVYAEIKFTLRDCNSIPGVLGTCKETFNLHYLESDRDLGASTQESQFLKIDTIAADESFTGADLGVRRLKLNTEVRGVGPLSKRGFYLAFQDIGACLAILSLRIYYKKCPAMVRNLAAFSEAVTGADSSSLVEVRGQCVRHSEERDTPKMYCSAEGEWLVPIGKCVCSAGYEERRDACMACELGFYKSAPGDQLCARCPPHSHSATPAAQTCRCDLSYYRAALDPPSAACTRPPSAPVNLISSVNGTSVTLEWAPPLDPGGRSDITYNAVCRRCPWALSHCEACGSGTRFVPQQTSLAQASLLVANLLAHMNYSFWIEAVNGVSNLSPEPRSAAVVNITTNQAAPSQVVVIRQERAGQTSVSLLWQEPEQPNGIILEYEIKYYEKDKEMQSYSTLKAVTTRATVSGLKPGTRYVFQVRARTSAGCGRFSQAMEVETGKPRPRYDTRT
The experiment in a line: Activity ELISA, receptor coated on the plate, purified IgG, anti-human kappa-HRP, OD 450 nm. The protocol: as §1

Another assay concerns the target T6, mEphA4 (mouse, UniProt Q03137).
T6 construct: part of an Fc fusion; also called rmuEphA4-Fc
The experiment in a line: ELISA, receptor coated on the plate, purified IgG, anti-human kappa-HRP.

The next assay deals with T7, mEphA7 (mouse, UniProt Q61772).
T7 construct: part of an Fc fusion; also called rmuEphA7-Fc
T7 sequence (receptor-Fc fusion, looked up): T4 sequence (receptor-Fc fusion, looked up)
The assay is described as above.

T1 sequence (P54764 20-547): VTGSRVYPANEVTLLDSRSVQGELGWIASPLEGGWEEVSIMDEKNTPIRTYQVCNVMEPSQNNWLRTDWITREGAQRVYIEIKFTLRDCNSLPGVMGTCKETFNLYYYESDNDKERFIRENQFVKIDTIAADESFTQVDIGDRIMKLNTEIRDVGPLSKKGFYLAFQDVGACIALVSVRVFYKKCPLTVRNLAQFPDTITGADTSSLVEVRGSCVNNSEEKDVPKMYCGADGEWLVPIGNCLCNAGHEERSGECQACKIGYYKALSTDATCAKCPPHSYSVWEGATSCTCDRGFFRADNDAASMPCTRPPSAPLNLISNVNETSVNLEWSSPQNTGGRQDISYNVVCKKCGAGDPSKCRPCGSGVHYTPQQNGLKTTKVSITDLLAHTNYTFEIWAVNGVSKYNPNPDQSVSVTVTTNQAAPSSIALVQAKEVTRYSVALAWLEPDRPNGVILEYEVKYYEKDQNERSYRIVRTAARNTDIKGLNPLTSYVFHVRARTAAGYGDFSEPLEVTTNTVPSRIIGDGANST
T2 sequence (P54757 27-575 limits assumed): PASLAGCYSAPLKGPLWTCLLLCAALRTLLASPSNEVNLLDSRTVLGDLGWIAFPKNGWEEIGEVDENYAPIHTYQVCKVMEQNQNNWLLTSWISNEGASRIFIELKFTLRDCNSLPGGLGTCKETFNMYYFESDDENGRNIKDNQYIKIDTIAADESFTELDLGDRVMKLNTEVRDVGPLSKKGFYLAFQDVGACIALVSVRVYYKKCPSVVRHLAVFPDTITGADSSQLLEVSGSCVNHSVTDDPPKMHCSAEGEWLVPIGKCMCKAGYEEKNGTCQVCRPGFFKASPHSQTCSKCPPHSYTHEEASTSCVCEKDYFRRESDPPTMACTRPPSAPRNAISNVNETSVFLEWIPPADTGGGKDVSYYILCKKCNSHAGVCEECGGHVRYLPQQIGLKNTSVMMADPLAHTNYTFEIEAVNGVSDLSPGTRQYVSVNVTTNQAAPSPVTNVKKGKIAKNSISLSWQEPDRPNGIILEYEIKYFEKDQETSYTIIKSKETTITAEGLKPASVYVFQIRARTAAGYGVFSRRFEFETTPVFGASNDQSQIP
T3 sequence (Q03137 20-547 limits assumed): as the sequence (P54764 20-547) above, with P59A, N121S, V124G, R250Q, S251N, T270S, K378R, N406S counted along it
T6 sequence (Q03137 20-547 limits assumed): as the sequence (P54764 20-547) above, with P59A, N121S, V124G, R250Q, S251N, T270S, K378R, N406S counted along it

B1: 3A12 IgG1 (affinity optimized combinatorial variant of mAb GEA44 in human IgG1 format) (antibody, V domains shown)
VH: QVQLLQSGAEVKKPGASVKVPCKASGYTFTSRAMSWVRQAPGQGLEWMGWINTNTGNPTYAQGFTGRFVFSLDTSVSTAYLQISSLKAEDTAVYYCARVRFTVYGDGMDVWGQGTLVTVSS
VL: EIVLTQSPATLSVSPGERATLSCRASQSVSSNLAWYQQKPGQAPRLLIYGASTWATGIPDRFSASGSGTDFTLTISRVEPEDFAVYYCQQYGPSWTFGQGTKVEIK
Broadly, the Kd is the free concentration of one partner at which half of the binding sites on the other are occupied at equilibrium, for simple one-to-one binding. Higher therefore signals weaker binding. As usually defined, the koff is the first-order rate constant of dissociation. Higher therefore signals fast dissociation. The term kon denotes the rate constant with which the complex forms. A lower kon goes with slow association. In turn, B1 came in with a Kd in assay [1] of 6 pM. For the same molecule, the koff in assay [1] amounted to 8.66e-07 s⁻¹. The same molecule registered an association rate constant (kon) in assay [1] of 147000 M⁻¹ s⁻¹. Moreover, the binding result in the assay with r rat EphA5, with r murine EphA4, in the assay with r murine EphA7, with r murine EphA8, with mEphA4 and with mEphA7 was “binds” in each case.
